Test results: patent US11820970B2, “High throughput protein-protein interaction screening in yeast liquid culture” (University of Washington, priority 2016, dated 2023)

Key:
Assay in all cases: Batched (one-pot) yeast mating assay, barcode sequencing
Type in all cases: cell-based
[1] = biological target: T1, Bfl1 (Homo sapiens, UniProt Q16548); conditions: vs Bfl1
T1 sequence (Q16548 1-175): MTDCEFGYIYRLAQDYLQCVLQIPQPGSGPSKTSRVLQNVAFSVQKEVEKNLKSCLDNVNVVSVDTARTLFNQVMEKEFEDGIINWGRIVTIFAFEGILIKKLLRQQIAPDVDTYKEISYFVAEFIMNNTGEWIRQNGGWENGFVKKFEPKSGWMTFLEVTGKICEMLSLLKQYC
Description: (§1) For a many-to-many (also see Example 6) batched mating assay, multiple haploid yeast strains of each mating type are combined in a fresh 3 mL YPD culture. The recombinant MATa yeast strains are added in equal concentrations for a total density of 100 cells/μL and the recombinant MATalpha yeast strains are added in equal concentrations for a total density of 600 cells/μL. After 6 hours of growth, hygromycin is added at 100 ng/μL and β-estradiol (PE) is added at 200 ng/μL. 20 hours after the initial culture inoculation, 1 mL of cells are pelleted. 2 μL of cells are removed from the pellet, lysed with 0.2% SDS, spun down to remove all cellular debris, and diluted in water. The lysate is then used as a template for a PCR with standard primers containing overhangs for next generation sequencing and the PCR product, expected to be 650 bases, is purified from a gel slice. Paired-end next generation sequencing is then performed. The frequency that a particular pair of barcodes is observed relative to the total number of reads provides a relative measure for the number of matings that were caused by the SAP pair associated with those two particular barcodes.
(§2) LIBRARY MATING ASSAYS: For library mating assays in which each isogenic strain was constructed individually and the barcode associated with each synthetic adhesion protein was determined with Sanger sequencing, one or both of the isogenic haploid strains from a one-to-one mating were replaced with a library of strains, all of the same mating type, displaying unique barcoded synthetic adhesion proteins. Each haploid strain in the library is individually grown to saturation, evaluated for surface expression strength as described previously, and mixed in equal volumes. 2.5 μL, if a MATa library, or 5 μL, if a MATalpha library, were then added to a mating as before. Following a 17 hour incubation, 100 μL were added to 50 mL of YPD with […] hygromycin and 100 nM β-estradiol (many-to-many matings only). After growing to saturation, cells were harvested by centrifugation, and lysed by heating to 70° C. for 5 min in 200 mM LiOAc and 1% SDS. Cellular debris was removed and incubated at 37° C. for 4 hours with 0.05 mg/mL RNase A. An ethanol precipitation was then performed to purify and concentrate the genomic DNA. A primary qPCR is performed to amplify the barcode region with standard adaptors and the PCR product is used as a template for a secondary qPCR to attach an index barcode and standard Illumina adaptors. This fragment is gel extracted, quantified with a Qubit and analyzed on a MiSeq next generation sequencer.
(§3) One-pot protein library characterization. A barcoding and recombination scheme was developed for the analysis of whole protein interaction networks in a single pot. Single MATa and MATα parent strain, yNGYSDa and yNGYSDα, were constructed and barcoded SAP cassettes were transformed into the strains. In addition to the knockout of Sag1 in both parent strains and complementary lysine and leucine markers, yNGYSDa contains a CRE recombinase expression cassette with an inducible promoter, pZ4. yNGYSDα constitutively expresses ZEV4, an activator of the pZ4 promoter with an estradiol binding domain for nuclear localization. SAP cassettes were assembled in one of two standardized vectors, pNGYSDa or pNGYSDα, for integration into the corresponding yeast parent strain. In addition to the surface expression cassette, each vector backbone contains a mating type specific florescent reporter cassette, a randomized ten-nucleotide barcode, a mating type specific primer binding site, and a lox recombination site. Upon mating, the addition of β-Estradiol (βE) induces CRE recombinase expression in diploid cells, consolidating the barcodes from each haploid chromosome so that next-generation sequencing can be used to count the frequency of interacting SAP pairs (FIG. 16A). […]

[2] = biological target: Bcl2 (Homo sapiens, UniProt P10415); conditions: vs Bcl2
Description: as §1, §2, §3

[3] = biological target: T2, BclW (Homo sapiens, UniProt Q92843); conditions: vs BclW
T2 sequence (Q92843 1-193): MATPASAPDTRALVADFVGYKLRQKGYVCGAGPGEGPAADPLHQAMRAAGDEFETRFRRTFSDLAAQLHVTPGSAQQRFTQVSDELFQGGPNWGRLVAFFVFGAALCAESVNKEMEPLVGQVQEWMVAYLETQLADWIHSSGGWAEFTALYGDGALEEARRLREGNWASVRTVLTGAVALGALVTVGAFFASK
Description: as §1, §2, §3

Bcl2, sequence (P10415 whole entry, species assumed): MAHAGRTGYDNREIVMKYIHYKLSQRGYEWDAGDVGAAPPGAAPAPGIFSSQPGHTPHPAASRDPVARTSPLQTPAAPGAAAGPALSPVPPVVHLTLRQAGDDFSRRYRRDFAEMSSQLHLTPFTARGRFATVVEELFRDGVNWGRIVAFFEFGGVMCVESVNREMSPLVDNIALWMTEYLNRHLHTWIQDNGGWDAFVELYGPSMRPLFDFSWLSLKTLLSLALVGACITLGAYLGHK

| binding in batched mating (interaction profile, in words) [1] | binding in batched mating (interaction profile, in words) [2] | binding in batched mating (interaction profile, in words) [3] | Substance |
| --- | --- | --- | --- |
| nonspecifically | nonspecifically | nonspecifically | Bim: natural BH3 domain peptide binder of Bcl2 family proteins |
| high specificity |  |  | Noxa: natural BH3 domain peptide binder of Bcl2 family proteins (PAELEVECATQLRRFGDKLNFRQKLL) |
| nonspecifically | nonspecifically | nonspecifically | Puma: natural BH3 domain peptide binder of Bcl2 family proteins (EEQWAREIGAQLRRMADDLNAQYERR) |
